Assay results reported in publication PMC9482650, “Quantitative fragmentomics allow affinity mapping of interactomes” (Nature Communications, 2022).
One block for each binder: values may come before it.

Assays:
Experiment in all cases: holdup assay
Parameters in all cases: key: below the threshold = too weak to quantify, mostly under pKd 3.1 to 4
Conditions in all cases: plain residues with an end cap or a label only (N-terminal biotin on a linker: ado-ado)
FRMPD4, Q14CM0 = molecular target: FRMPD4, Q14CM0
DLG2_3, Q15700 = molecular target: DLG2_3, Q15700
PTPN13_1, Q12923 = molecular target: T1, PTPN13_1, Q12923
T1 sequence (Q12923 1088-1188, limits assumed, looked up): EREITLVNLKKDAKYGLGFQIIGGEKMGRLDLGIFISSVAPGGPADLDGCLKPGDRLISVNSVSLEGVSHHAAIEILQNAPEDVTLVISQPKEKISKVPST

PDZD7_3, Q9H5P4 = molecular target: T2, PDZD7_3, Q9H5P4
T2 sequence (Q9H5P4 857-944, limits assumed, looked up): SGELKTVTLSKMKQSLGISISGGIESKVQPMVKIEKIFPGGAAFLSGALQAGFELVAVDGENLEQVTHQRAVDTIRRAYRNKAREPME

Inadl_6, Q8NI35 = molecular target: Inadl_6, Q8NI35
PDZRN4_1, Q6ZMN7 = molecular target: PDZRN4_1, Q6ZMN7
GRASP, Q7Z6J2 = molecular target: GRASP, Q7Z6J2
APBA3_1, O96018 = molecular target: T3, APBA3_1, O96018
T3 sequence (O96018 389-490, limits assumed, looked up): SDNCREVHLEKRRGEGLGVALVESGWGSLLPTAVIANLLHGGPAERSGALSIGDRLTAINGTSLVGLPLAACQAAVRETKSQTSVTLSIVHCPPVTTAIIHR

LNX1_2, Q8TBB1 = molecular target: LNX1_2, Q8TBB1
FRMPD1, Q5SYB0 = molecular target: T4, FRMPD1, Q5SYB0
T4 sequence (Q5SYB0 52-145, limits assumed, looked up): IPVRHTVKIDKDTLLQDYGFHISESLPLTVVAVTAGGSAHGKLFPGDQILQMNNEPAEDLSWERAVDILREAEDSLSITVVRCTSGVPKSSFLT

GRIP2_4, Q9C0E4 = molecular target: GRIP2_4, Q9C0E4
ARHGEF12, Q9NZN5-2 = molecular target: ARHGEF12, Q9NZN5-2
TIAM2, Q8IVF5 = molecular target: T5, TIAM2, Q8IVF5
T5 sequence (Q8IVF5 885-986, limits assumed, looked up): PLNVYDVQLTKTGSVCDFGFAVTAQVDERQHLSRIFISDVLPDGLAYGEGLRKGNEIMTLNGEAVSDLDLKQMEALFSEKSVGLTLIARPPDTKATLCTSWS

DVL3, Q92997 = molecular target: T6, DVL3, Q92997
T6 sequence (Q92997 244-331, limits assumed, looked up): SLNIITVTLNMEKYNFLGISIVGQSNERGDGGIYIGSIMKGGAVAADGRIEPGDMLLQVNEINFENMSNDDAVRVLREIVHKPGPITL

FRMPD2_1, Q68DX3 = molecular target: FRMPD2_1, Q68DX3
FRMPD2_2, Q68DX3 = molecular target: FRMPD2_2, Q68DX3
NHERF4_4, Q86UT5 = molecular target: NHERF4_4, Q86UT5
FRMPD2_3, Q68DX3 = molecular target: FRMPD2_3, Q68DX3
SNTG2, Q9NY99 = molecular target: T7, SNTG2, Q9NY99
T7 sequence (Q9NY99 68-166, limits assumed, looked up): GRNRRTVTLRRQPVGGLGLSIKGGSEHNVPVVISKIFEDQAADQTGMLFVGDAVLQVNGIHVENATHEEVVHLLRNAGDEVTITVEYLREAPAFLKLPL

RAPGEF6, Q8TEU7 = molecular target: T8, RAPGEF6, Q8TEU7
T8 sequence (Q8TEU7 525-625, limits assumed, looked up): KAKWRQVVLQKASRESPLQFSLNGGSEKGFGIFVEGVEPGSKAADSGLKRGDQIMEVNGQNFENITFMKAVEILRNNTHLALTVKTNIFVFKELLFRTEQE

MAGI2_3, Q86UL8 = molecular target: MAGI2_3, Q86UL8
LNX1_1, Q8TBB1 = molecular target: LNX1_1, Q8TBB1
MAGI2_6, Q86UL8 = molecular target: MAGI2_6, Q86UL8
SIPA1L2, Q9P2F8 = molecular target: T9, SIPA1L2, Q9P2F8
T9 sequence (Q9P2F8 945-1036, limits assumed, looked up): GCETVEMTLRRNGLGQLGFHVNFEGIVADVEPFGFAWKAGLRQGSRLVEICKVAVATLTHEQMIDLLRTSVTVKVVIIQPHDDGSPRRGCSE

HTRA4, P83105 = molecular target: T10, HTRA4, P83105
T10 sequence (P83105 378-476, limits assumed, looked up): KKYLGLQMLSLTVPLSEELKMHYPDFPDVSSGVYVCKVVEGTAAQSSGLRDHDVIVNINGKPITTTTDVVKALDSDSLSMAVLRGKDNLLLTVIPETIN

Inadl_8, Q8NI35 = molecular target: Inadl_8, Q8NI35
RHPN1, Q8TCX5 = molecular target: T11, RHPN1, Q8TCX5
T11 sequence (Q8TCX5 508-602, limits assumed, looked up): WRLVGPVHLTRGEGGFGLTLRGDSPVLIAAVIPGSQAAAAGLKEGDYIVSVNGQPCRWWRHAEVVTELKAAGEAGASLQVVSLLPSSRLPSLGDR

PDZRN4_1, Q6ZMN7, sequence (Q6ZMN7 213-318): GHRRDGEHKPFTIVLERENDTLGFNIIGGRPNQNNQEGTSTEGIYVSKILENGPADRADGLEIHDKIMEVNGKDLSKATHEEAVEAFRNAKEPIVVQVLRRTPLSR
Inadl_8, Q8NI35, sequence (Q8NI35 1425-1530): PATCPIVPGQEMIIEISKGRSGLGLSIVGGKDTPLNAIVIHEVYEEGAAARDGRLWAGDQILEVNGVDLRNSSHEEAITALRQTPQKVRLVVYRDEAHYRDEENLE
Inadl_6, Q8NI35, sequence (Q8NI35 1058-1167): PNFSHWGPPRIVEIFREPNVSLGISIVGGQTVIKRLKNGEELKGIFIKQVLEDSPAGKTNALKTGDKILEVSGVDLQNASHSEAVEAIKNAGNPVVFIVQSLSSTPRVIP
MAGI2_3, Q86UL8, sequence (Q86UL8 600-682): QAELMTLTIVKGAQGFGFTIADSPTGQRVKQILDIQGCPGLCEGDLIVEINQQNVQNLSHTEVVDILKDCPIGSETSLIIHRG
NHERF4_4, Q86UT5, sequence (Q86UT5 464-550): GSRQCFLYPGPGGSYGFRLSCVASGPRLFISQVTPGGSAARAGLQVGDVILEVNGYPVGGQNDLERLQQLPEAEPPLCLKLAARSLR
LNX1_1, Q8TBB1, sequence (Q8TBB1 261-371): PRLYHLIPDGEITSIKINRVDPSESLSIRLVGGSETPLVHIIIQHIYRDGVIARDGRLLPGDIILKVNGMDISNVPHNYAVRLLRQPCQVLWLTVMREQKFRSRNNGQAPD
FRMPD4, Q14CM0, sequence (Q14CM0 67-160): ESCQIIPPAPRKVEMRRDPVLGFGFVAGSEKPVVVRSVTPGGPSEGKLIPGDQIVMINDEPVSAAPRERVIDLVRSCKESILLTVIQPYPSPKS
LNX1_2, Q8TBB1, sequence (Q8TBB1 371-470): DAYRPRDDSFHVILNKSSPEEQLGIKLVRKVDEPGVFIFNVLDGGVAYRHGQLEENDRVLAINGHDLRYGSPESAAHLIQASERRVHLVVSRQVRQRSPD
FRMPD2_2, Q68DX3, sequence (Q68DX3 944-1038): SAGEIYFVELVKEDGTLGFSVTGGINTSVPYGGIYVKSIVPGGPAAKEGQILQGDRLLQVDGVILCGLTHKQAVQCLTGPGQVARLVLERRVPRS
GRIP2_4, Q9C0E4, sequence (Q9C0E4 446-548): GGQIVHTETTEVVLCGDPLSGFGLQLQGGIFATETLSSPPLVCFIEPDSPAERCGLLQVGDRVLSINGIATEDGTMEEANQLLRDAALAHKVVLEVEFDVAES
MAGI2_6, Q86UL8, sequence (Q86UL8 1141-1229): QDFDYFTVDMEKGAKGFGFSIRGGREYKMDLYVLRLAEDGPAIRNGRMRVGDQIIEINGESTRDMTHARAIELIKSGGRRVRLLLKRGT
ARHGEF12, Q9NZN5-2, sequence (Q9NZN5 other isoform, or with tags, fused parts or gaps): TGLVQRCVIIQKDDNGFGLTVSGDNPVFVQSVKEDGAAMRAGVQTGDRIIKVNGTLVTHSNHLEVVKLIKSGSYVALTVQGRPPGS
FRMPD2_1, Q68DX3, sequence (Q68DX3 770-861): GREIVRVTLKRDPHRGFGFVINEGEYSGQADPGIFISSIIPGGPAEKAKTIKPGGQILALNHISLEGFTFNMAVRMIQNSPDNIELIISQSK
GRASP, Q7Z6J2, sequence (Q7Z6J2 96-193): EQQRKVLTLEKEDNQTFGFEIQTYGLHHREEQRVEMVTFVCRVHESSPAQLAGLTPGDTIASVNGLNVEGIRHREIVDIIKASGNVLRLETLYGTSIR
FRMPD2_3, Q68DX3, sequence (Q68DX3 1073-1166): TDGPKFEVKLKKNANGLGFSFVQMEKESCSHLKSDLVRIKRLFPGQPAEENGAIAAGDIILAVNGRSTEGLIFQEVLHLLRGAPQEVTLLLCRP

pKd (FRMPD4, Q14CM0): below the threshold
pKd (DLG2_3, Q15700): 3.88
pKd (PTPN13_1, Q12923): below the threshold
pKd (PDZD7_3, Q9H5P4): 3.63
pKd (Inadl_6, Q8NI35): below the threshold
pKd (PDZRN4_1, Q6ZMN7): below the threshold
pKd (GRASP, Q7Z6J2): 4.09
pKd (APBA3_1, O96018): below the threshold
pKd (LNX1_2, Q8TBB1): below the threshold
pKd (FRMPD1, Q5SYB0): below the threshold
pKd (GRIP2_4, Q9C0E4): below the threshold
pKd (ARHGEF12, Q9NZN5-2): 3.63
pKd (TIAM2, Q8IVF5): 4.19
pKd (DVL3, Q92997): below the threshold
pKd (FRMPD2_1, Q68DX3): below the threshold
pKd (FRMPD2_2, Q68DX3): below the threshold
pKd (NHERF4_4, Q86UT5): below the threshold
pKd (FRMPD2_3, Q68DX3): below the threshold
pKd (SNTG2, Q9NY99): below the threshold
pKd (RAPGEF6, Q8TEU7): 3.57
pKd (MAGI2_3, Q86UL8): below the threshold
pKd (LNX1_1, Q8TBB1): below the threshold
pKd (MAGI2_6, Q86UL8): 4.24
pKd (SIPA1L2, Q9P2F8): below the threshold
pKd (HTRA4, P83105): 3.69
pKd (Inadl_8, Q8NI35): below the threshold
pKd (RHPN1, Q8TCX5): below the threshold
B1: MYOT, Q9UBF9 (peptide)
chain: QSGLYESEEL

pKd (FRMPD4, Q14CM0): 3.53
pKd (DLG2_3, Q15700): below the threshold
pKd (PTPN13_1, Q12923): below the threshold
pKd (PDZD7_3, Q9H5P4): 4.61
pKd (Inadl_6, Q8NI35): below the threshold
pKd (PDZRN4_1, Q6ZMN7): below the threshold
pKd (GRASP, Q7Z6J2): 5.05
pKd (APBA3_1, O96018): below the threshold
pKd (LNX1_2, Q8TBB1): below the threshold
pKd (FRMPD1, Q5SYB0): below the threshold
pKd (GRIP2_4, Q9C0E4): below the threshold
pKd (ARHGEF12, Q9NZN5-2): 4.51
pKd (TIAM2, Q8IVF5): below the threshold
pKd (DVL3, Q92997): below the threshold
pKd (FRMPD2_1, Q68DX3): below the threshold
pKd (FRMPD2_2, Q68DX3): below the threshold
pKd (NHERF4_4, Q86UT5): below the threshold
pKd (FRMPD2_3, Q68DX3): below the threshold
pKd (SNTG2, Q9NY99): below the threshold
pKd (RAPGEF6, Q8TEU7): below the threshold
pKd (MAGI2_3, Q86UL8): below the threshold
pKd (LNX1_1, Q8TBB1): below the threshold
pKd (MAGI2_6, Q86UL8): below the threshold
pKd (SIPA1L2, Q9P2F8): below the threshold
pKd (HTRA4, P83105): below the threshold
pKd (Inadl_8, Q8NI35): 3.55
pKd (RHPN1, Q8TCX5): below the threshold
B2: OR8G1, Q15617 (peptide)
chain: KKMLQRRTLL

pKd (FRMPD4, Q14CM0): 4.01
pKd (DLG2_3, Q15700): 3.7
pKd (PTPN13_1, Q12923): below the threshold
pKd (PDZD7_3, Q9H5P4): below the threshold
pKd (Inadl_6, Q8NI35): below the threshold
pKd (PDZRN4_1, Q6ZMN7): below the threshold
pKd (GRASP, Q7Z6J2): below the threshold
pKd (APBA3_1, O96018): below the threshold
pKd (LNX1_2, Q8TBB1): below the threshold
pKd (FRMPD1, Q5SYB0): below the threshold
pKd (GRIP2_4, Q9C0E4): below the threshold
pKd (ARHGEF12, Q9NZN5-2): below the threshold
pKd (TIAM2, Q8IVF5): 4.06
pKd (DVL3, Q92997): below the threshold
pKd (FRMPD2_1, Q68DX3): below the threshold
pKd (FRMPD2_2, Q68DX3): below the threshold
pKd (NHERF4_4, Q86UT5): below the threshold
pKd (FRMPD2_3, Q68DX3): below the threshold
pKd (SNTG2, Q9NY99): below the threshold
pKd (RAPGEF6, Q8TEU7): below the threshold
pKd (MAGI2_3, Q86UL8): below the threshold
pKd (LNX1_1, Q8TBB1): below the threshold
pKd (MAGI2_6, Q86UL8): 4.17
pKd (SIPA1L2, Q9P2F8): below the threshold
pKd (HTRA4, P83105): below the threshold
pKd (Inadl_8, Q8NI35): below the threshold
pKd (RHPN1, Q8TCX5): below the threshold
B3: CACNA1A, O00555 (peptide)
chain: PYSESDDDWC
